Experimental data as given in publication PMC8480326, “Chemoenzymatic glycan-selective remodeling of a therapeutic lysosomal enzyme with high-affinity M6P-glycan ligands. Enzyme substrate specificity is the name of the game” (Chemical Science, 2021).

Biological target: T1, Recombinant human IGF-II R (CI-MPR) (Homo sapiens, UniProt P11717)
T1 construct: purchased R&D Systems
Test: SPR binding to immobilized CI-MPR
Experimental: Surface Plasmon Resonance (SPR) Measurements. SPR measurements were performed on a Biacore T200 instrument (GE Healthcare). Recombinant human IGF-II R (CI-MPR) was purchased
from R&D Systems. Approximately 7000 resonance units (RU) of CI-MPR was immobilized on a
CM5 sensor chip in a sodium acetate buffer (25 μg/mL, pH 4.0) at 25 °C, using the amine coupling kit
provided by the manufacturer. Mannose 6-phosphate containing glycopeptides or glycoproteins were
determined at 25 °C under a flow rate of 10 μL/min. HBS-P+ buffer (10 mM HEPES, 150 mM NaCl,
0.05% surfactant P20, pH 7.4) was used as sample buffer and running buffer. Association was
measured for 3 min and dissociation for 10 min at same flow rate (10 μL/min). The surface
and glycoprotein analytes flowed over an immobilized chip with 2-fold serial dilution of the highest
concentration of 4 μM (for glycopeptides) or 1 μM (for RNase B) or 250 nM (for rhGAA).
analyses were performed by global fitting of the binding data to a 1:1 Langmuir binding model using

T1 sequence (P11717 41-2491): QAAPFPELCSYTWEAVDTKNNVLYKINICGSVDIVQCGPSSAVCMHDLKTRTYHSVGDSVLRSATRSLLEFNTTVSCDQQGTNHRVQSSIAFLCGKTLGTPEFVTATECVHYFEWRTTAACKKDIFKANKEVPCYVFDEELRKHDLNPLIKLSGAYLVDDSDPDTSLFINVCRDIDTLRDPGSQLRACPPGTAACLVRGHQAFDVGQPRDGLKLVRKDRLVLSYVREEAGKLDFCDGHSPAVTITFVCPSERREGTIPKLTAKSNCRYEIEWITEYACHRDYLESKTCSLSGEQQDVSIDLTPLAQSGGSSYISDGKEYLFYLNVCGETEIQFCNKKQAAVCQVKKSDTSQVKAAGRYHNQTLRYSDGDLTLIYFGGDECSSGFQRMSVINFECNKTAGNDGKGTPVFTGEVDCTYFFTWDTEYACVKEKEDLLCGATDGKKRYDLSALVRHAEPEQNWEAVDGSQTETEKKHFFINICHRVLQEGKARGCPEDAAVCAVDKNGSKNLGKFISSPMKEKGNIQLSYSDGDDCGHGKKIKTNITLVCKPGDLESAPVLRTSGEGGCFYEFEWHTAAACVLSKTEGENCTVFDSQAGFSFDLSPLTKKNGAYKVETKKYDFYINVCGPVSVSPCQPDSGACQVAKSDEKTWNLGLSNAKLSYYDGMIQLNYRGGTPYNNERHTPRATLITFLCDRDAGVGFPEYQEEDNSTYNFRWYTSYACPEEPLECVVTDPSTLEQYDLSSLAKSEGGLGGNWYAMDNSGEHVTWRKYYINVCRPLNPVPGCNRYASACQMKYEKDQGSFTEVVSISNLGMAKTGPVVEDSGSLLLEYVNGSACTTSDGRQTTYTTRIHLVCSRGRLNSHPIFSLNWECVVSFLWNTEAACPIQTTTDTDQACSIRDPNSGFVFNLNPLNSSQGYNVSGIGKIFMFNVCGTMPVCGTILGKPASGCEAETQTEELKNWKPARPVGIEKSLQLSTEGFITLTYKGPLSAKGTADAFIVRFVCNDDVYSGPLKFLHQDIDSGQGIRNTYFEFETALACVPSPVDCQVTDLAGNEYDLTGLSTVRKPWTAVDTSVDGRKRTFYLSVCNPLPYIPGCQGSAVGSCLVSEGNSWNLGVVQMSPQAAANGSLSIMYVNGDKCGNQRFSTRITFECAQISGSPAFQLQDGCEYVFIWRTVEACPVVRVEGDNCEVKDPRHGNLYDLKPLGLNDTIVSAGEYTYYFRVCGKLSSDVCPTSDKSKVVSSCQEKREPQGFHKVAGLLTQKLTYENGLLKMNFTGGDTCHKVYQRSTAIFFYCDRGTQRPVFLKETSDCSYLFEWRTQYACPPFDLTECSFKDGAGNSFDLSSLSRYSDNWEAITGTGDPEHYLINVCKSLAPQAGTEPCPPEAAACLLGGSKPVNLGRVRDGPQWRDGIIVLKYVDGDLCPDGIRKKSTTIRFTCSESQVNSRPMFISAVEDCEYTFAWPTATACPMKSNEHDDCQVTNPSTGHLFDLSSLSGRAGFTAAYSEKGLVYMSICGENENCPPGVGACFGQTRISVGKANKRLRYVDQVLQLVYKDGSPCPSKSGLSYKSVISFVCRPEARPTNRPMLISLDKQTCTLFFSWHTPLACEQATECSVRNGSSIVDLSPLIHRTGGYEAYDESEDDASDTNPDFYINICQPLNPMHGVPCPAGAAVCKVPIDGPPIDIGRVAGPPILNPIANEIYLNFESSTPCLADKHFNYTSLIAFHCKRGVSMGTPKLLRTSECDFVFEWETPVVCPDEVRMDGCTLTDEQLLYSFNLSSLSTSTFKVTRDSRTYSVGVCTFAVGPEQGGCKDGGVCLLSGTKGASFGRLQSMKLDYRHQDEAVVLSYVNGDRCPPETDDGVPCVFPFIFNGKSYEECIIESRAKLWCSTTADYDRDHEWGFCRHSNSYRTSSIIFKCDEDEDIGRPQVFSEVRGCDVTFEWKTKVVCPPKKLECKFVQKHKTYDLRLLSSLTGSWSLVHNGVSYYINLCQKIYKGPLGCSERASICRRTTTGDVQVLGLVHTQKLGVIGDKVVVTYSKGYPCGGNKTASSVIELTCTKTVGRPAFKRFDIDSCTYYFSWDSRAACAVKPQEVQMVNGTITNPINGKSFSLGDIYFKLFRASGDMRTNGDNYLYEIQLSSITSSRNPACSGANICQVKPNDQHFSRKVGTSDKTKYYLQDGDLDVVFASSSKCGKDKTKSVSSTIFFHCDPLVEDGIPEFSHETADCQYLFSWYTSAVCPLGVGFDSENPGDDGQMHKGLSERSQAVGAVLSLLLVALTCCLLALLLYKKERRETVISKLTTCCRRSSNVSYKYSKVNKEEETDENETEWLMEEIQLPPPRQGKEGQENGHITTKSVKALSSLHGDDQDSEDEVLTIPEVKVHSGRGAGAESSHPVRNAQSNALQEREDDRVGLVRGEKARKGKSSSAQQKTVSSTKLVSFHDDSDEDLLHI

Kd (SPR, immobilized CI-MPR, 25 °C, average of three independent experiments): 15.8 nM
Ka (representative SPR sensorgram, 1:1 Langmuir fit, association constant): 6.877E+4
Kd (representative SPR sensorgram, single experiment): 15.5 nM
B1: 68: M6P-containing RNase B, remodeled with tetrasaccharide oxazoline 8 by Endo-A (protein, UniProt P61823 27-150, looked up)
Ribonuclease pancreatic: KETAAAKFERQHMDSSTSAASSSNYCNQMMKSRNLTKDRCKPVNTFVHESLADVQAVCSQKNVACKNGQTNCYQSYSTMSITDCRETGSSKYPNCAYKTTQANKHIIVACEGNPYVPVHFDASV
modifications: M6P-tetrasaccharide glycan remodeled by Endo-A
notes: M6P-containing RNase B, remodeled with tetrasaccharide oxazoline 8 by Endo-A
